Measured values from US20250073311A1, “DOSAGE REGIME” (ZEALAND PHARMA A/S, priority 2021, published 2025).
Each block holds one binder with its values, some of them ahead of it. Numbered stars: 1 amine (or outer) side, 2 acyl side, 3 side chain; on linkers, the order of the positions; unused ones are H or OH. Square brackets hold non-standard residues; d marks the D form. Side chains are listed from the residue outwards. * marks the point of attachment. C18 diacid = O=C(O)CCCCCCCCCCCCCCCCC(=O)*; γGlu = O=C(O)[C@H](CCC(=O)[*:2])N[*:1]; Aib = CC(C)(N)C(=O)O

Tests used:
[1] = biological target: T1, human GLP-2 receptor (hGLP2-R) (human, UniProt O95838); experiment: cell-based or functional assay
T1 sequence: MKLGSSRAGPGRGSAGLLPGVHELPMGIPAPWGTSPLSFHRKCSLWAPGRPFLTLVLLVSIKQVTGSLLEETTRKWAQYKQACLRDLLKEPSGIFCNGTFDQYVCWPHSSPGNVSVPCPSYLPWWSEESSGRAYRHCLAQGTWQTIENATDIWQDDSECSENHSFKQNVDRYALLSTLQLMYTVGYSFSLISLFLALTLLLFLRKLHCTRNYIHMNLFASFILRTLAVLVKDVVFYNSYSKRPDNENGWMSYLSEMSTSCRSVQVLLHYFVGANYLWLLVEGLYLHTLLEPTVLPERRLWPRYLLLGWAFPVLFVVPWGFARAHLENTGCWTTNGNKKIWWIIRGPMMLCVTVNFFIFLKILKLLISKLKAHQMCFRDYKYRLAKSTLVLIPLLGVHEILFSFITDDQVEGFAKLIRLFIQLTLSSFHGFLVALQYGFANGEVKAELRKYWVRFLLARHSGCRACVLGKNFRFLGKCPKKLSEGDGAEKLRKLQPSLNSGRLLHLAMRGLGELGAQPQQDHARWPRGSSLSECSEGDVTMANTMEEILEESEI

[2] = biological target: human glucagon-like peptide 1 receptor (GLP-1R) (human, UniProt P43220); experiment: cell-based or functional assay

B1: Compound 14 (peptide)
peptide: H-H[Aib]EGSFTSELATILDK([γGlu-C18 diacid])LAARDFIAWLIAHKITD-OH
SMILES: CC[C@H](C)[C@H](NC(=O)[C@H](CC(C)C)NC(=O)[C@H](Cc1c[nH]c2ccccc12)NC(=O)[C@H](C)NC(=O)[C@@H](NC(=O)[C@H](Cc1ccccc1)NC(=O)[C@H](CC(=O)O)NC(=O)[C@H](CCCNC(=N)N)NC(=O)[C@H](C)NC(=O)[C@H](C)NC(=O)[C@H](CC(C)C)NC(=O)[C@H](CCCCNC(=O)CC[C@H](NC(=O)CCCCCCCCCCCCCCCCC(=O)O)C(=O)O)NC(=O)[C@H](CC(=O)O)NC(=O)[C@H](CC(C)C)NC(=O)[C@@H](NC(=O)[C@@H](NC(=O)[C@H](C)NC(=O)[C@H](CC(C)C)NC(=O)[C@H](CCC(=O)O)NC(=O)[C@H](CO)NC(=O)[C@@H](NC(=O)[C@H](Cc1ccccc1)NC(=O)[C@H](CO)NC(=O)CNC(=O)[C@H](CCC(=O)O)NC(=O)C(C)(C)NC(=O)[C@@H](N)Cc1c[nH]cn1)[C@@H](C)O)[C@@H](C)O)[C@@H](C)CC)[C@@H](C)CC)C(=O)N[C@@H](C)C(=O)N[C@@H](Cc1c[nH]cn1)C(=O)N[C@@H](CCCCN)C(=O)N[C@H](C(=O)N[C@H](C(=O)N[C@@H](CC(=O)O)C(=O)O)[C@@H](C)O)[C@@H](C)CC
EC50 GLP-2 (nM), cAMP AlphaScreen [1]: 0.086 nM
EC50 GLP-1 (nM), cAMP AlphaScreen [2]: 0.57 nM

B2: Compound 15 (peptide)
peptide: H-H[Aib]EGTFTSELATILDK([γGlu-C18 diacid])LAARDFIAWLIAHKITD-OH
SMILES: CC[C@H](C)[C@H](NC(=O)[C@H](CC(C)C)NC(=O)[C@H](Cc1c[nH]c2ccccc12)NC(=O)[C@H](C)NC(=O)[C@@H](NC(=O)[C@H](Cc1ccccc1)NC(=O)[C@H](CC(=O)O)NC(=O)[C@H](CCCNC(=N)N)NC(=O)[C@H](C)NC(=O)[C@H](C)NC(=O)[C@H](CC(C)C)NC(=O)[C@H](CCCCNC(=O)CC[C@H](NC(=O)CCCCCCCCCCCCCCCCC(=O)O)C(=O)O)NC(=O)[C@H](CC(=O)O)NC(=O)[C@H](CC(C)C)NC(=O)[C@@H](NC(=O)[C@@H](NC(=O)[C@H](C)NC(=O)[C@H](CC(C)C)NC(=O)[C@H](CCC(=O)O)NC(=O)[C@H](CO)NC(=O)[C@@H](NC(=O)[C@H](Cc1ccccc1)NC(=O)[C@@H](NC(=O)CNC(=O)[C@H](CCC(=O)O)NC(=O)C(C)(C)NC(=O)[C@@H](N)Cc1c[nH]cn1)[C@@H](C)O)[C@@H](C)O)[C@@H](C)O)[C@@H](C)CC)[C@@H](C)CC)C(=O)N[C@@H](C)C(=O)N[C@@H](Cc1c[nH]cn1)C(=O)N[C@@H](CCCCN)C(=O)N[C@H](C(=O)N[C@H](C(=O)N[C@@H](CC(=O)O)C(=O)O)[C@@H](C)O)[C@@H](C)CC
EC50 GLP-2 (nM), cAMP AlphaScreen [1]: 0.16 nM
EC50 GLP-1 (nM), cAMP AlphaScreen [2]: 0.25 nM

B3: Compound 13 (peptide)
peptide: H-H[Aib]EGTFSSELATILDK([γGlu-C18 diacid])LAARDFIAWLIAHKITD-OH
SMILES: CC[C@H](C)[C@H](NC(=O)[C@H](CC(C)C)NC(=O)[C@H](Cc1c[nH]c2ccccc12)NC(=O)[C@H](C)NC(=O)[C@@H](NC(=O)[C@H](Cc1ccccc1)NC(=O)[C@H](CC(=O)O)NC(=O)[C@H](CCCNC(=N)N)NC(=O)[C@H](C)NC(=O)[C@H](C)NC(=O)[C@H](CC(C)C)NC(=O)[C@H](CCCCNC(=O)CC[C@H](NC(=O)CCCCCCCCCCCCCCCCC(=O)O)C(=O)O)NC(=O)[C@H](CC(=O)O)NC(=O)[C@H](CC(C)C)NC(=O)[C@@H](NC(=O)[C@@H](NC(=O)[C@H](C)NC(=O)[C@H](CC(C)C)NC(=O)[C@H](CCC(=O)O)NC(=O)[C@H](CO)NC(=O)[C@H](CO)NC(=O)[C@H](Cc1ccccc1)NC(=O)[C@@H](NC(=O)CNC(=O)[C@H](CCC(=O)O)NC(=O)C(C)(C)NC(=O)[C@@H](N)Cc1c[nH]cn1)[C@@H](C)O)[C@@H](C)O)[C@@H](C)CC)[C@@H](C)CC)C(=O)N[C@@H](C)C(=O)N[C@@H](Cc1c[nH]cn1)C(=O)N[C@@H](CCCCN)C(=O)N[C@H](C(=O)N[C@H](C(=O)N[C@@H](CC(=O)O)C(=O)O)[C@@H](C)O)[C@@H](C)CC
EC50 GLP-2 (nM), cAMP AlphaScreen [1]: 0.099 nM
EC50 GLP-1 (nM), cAMP AlphaScreen [2]: 2.2 nM

B6: Compound 12 (peptide)
peptide: H-H[Aib]EGTFTSELATILDK([γGlu-C18 diacid])LAARDFIAWLIEHKITD-OH
SMILES: CC[C@H](C)[C@H](NC(=O)[C@H](Cc1ccccc1)NC(=O)[C@H](CC(=O)O)NC(=O)[C@H](CCCNC(=N)N)NC(=O)[C@H](C)NC(=O)[C@H](C)NC(=O)[C@H](CC(C)C)NC(=O)[C@H](CCCCNC(=O)CC[C@H](NC(=O)CCCCCCCCCCCCCCCCC(=O)O)C(=O)O)NC(=O)[C@H](CC(=O)O)NC(=O)[C@H](CC(C)C)NC(=O)[C@@H](NC(=O)[C@@H](NC(=O)[C@H](C)NC(=O)[C@H](CC(C)C)NC(=O)[C@H](CCC(=O)O)NC(=O)[C@H](CO)NC(=O)[C@@H](NC(=O)[C@H](Cc1ccccc1)NC(=O)[C@@H](NC(=O)CNC(=O)[C@H](CCC(=O)O)NC(=O)C(C)(C)NC(=O)[C@@H](N)Cc1c[nH]cn1)[C@@H](C)O)[C@@H](C)O)[C@@H](C)O)[C@@H](C)CC)C(=O)N[C@@H](C)C(=O)N[C@@H](Cc1c[nH]c2ccccc12)C(=O)N[C@@H](CC(C)C)C(=O)N[C@H](C(=O)N[C@@H](CCC(=O)O)C(=O)N[C@@H](Cc1c[nH]cn1)C(=O)N[C@@H](CCCCN)C(=O)N[C@H](C(=O)N[C@H](C(=O)N[C@@H](CC(=O)O)C(=O)O)[C@@H](C)O)[C@@H](C)CC)[C@@H](C)CC
EC50 GLP-2 (nM), cAMP AlphaScreen [1]: 0.11 nM
EC50 GLP-1 (nM), cAMP AlphaScreen [2]: 0.14 nM

Continued, values first:

EC50 GLP-2 (nM), cAMP AlphaScreen [1]: 0.68 nM
EC50 GLP-1 (nM), cAMP AlphaScreen [2]: 0.073 nM
B4: Compound 16 (peptide)
peptide: H-H[Aib]EGTFTSELATILDK([γGlu-C18 diacid])EAARLFIAWLIEHKITD-OH
SMILES: CC[C@H](C)[C@H](NC(=O)[C@H](Cc1ccccc1)NC(=O)[C@H](CC(C)C)NC(=O)[C@H](CCCNC(=N)N)NC(=O)[C@H](C)NC(=O)[C@H](C)NC(=O)[C@H](CCC(=O)O)NC(=O)[C@H](CCCCNC(=O)CC[C@H](NC(=O)CCCCCCCCCCCCCCCCC(=O)O)C(=O)O)NC(=O)[C@H](CC(=O)O)NC(=O)[C@H](CC(C)C)NC(=O)[C@@H](NC(=O)[C@@H](NC(=O)[C@H](C)NC(=O)[C@H](CC(C)C)NC(=O)[C@H](CCC(=O)O)NC(=O)[C@H](CO)NC(=O)[C@@H](NC(=O)[C@H](Cc1ccccc1)NC(=O)[C@@H](NC(=O)CNC(=O)[C@H](CCC(=O)O)NC(=O)C(C)(C)NC(=O)[C@@H](N)Cc1c[nH]cn1)[C@@H](C)O)[C@@H](C)O)[C@@H](C)O)[C@@H](C)CC)C(=O)N[C@@H](C)C(=O)N[C@@H](Cc1c[nH]c2ccccc12)C(=O)N[C@@H](CC(C)C)C(=O)N[C@H](C(=O)N[C@@H](CCC(=O)O)C(=O)N[C@@H](Cc1c[nH]cn1)C(=O)N[C@@H](CCCCN)C(=O)N[C@H](C(=O)N[C@H](C(=O)N[C@@H](CC(=O)O)C(=O)O)[C@@H](C)O)[C@@H](C)CC)[C@@H](C)CC

EC50 GLP-2 (nM), cAMP AlphaScreen [1]: 0.21 nM
EC50 GLP-1 (nM), cAMP AlphaScreen [2]: 0.19 nM
B5: Compound 18 (peptide)
peptide: H-H[Aib]EGSFTSELATILDK([γGlu-C18 diacid])QAARDFIAWLIQHKITD-OH
SMILES: CC[C@H](C)[C@H](NC(=O)[C@H](Cc1ccccc1)NC(=O)[C@H](CC(=O)O)NC(=O)[C@H](CCCNC(=N)N)NC(=O)[C@H](C)NC(=O)[C@H](C)NC(=O)[C@H](CCC(N)=O)NC(=O)[C@H](CCCCNC(=O)CC[C@H](NC(=O)CCCCCCCCCCCCCCCCC(=O)O)C(=O)O)NC(=O)[C@H](CC(=O)O)NC(=O)[C@H](CC(C)C)NC(=O)[C@@H](NC(=O)[C@@H](NC(=O)[C@H](C)NC(=O)[C@H](CC(C)C)NC(=O)[C@H](CCC(=O)O)NC(=O)[C@H](CO)NC(=O)[C@@H](NC(=O)[C@H](Cc1ccccc1)NC(=O)[C@H](CO)NC(=O)CNC(=O)[C@H](CCC(=O)O)NC(=O)C(C)(C)NC(=O)[C@@H](N)Cc1c[nH]cn1)[C@@H](C)O)[C@@H](C)O)[C@@H](C)CC)C(=O)N[C@@H](C)C(=O)N[C@@H](Cc1c[nH]c2ccccc12)C(=O)N[C@@H](CC(C)C)C(=O)N[C@H](C(=O)N[C@@H](CCC(N)=O)C(=O)N[C@@H](Cc1c[nH]cn1)C(=O)N[C@@H](CCCCN)C(=O)N[C@H](C(=O)N[C@H](C(=O)N[C@@H](CC(=O)O)C(=O)O)[C@@H](C)O)[C@@H](C)CC)[C@@H](C)CC

EC50 GLP-2 (nM), cAMP AlphaScreen [1]: 0.33 nM
EC50 GLP-1 (nM), cAMP AlphaScreen [2]: 0.9 nM
B7: Compound 17 (peptide)
peptide: H-H[Aib]EGTFSSELATILDK([γGlu-C18 diacid])QAARDFIAWLIQHKITD-OH
SMILES: CC[C@H](C)[C@H](NC(=O)[C@H](Cc1ccccc1)NC(=O)[C@H](CC(=O)O)NC(=O)[C@H](CCCNC(=N)N)NC(=O)[C@H](C)NC(=O)[C@H](C)NC(=O)[C@H](CCC(N)=O)NC(=O)[C@H](CCCCNC(=O)CC[C@H](NC(=O)CCCCCCCCCCCCCCCCC(=O)O)C(=O)O)NC(=O)[C@H](CC(=O)O)NC(=O)[C@H](CC(C)C)NC(=O)[C@@H](NC(=O)[C@@H](NC(=O)[C@H](C)NC(=O)[C@H](CC(C)C)NC(=O)[C@H](CCC(=O)O)NC(=O)[C@H](CO)NC(=O)[C@H](CO)NC(=O)[C@H](Cc1ccccc1)NC(=O)[C@@H](NC(=O)CNC(=O)[C@H](CCC(=O)O)NC(=O)C(C)(C)NC(=O)[C@@H](N)Cc1c[nH]cn1)[C@@H](C)O)[C@@H](C)O)[C@@H](C)CC)C(=O)N[C@@H](C)C(=O)N[C@@H](Cc1c[nH]c2ccccc12)C(=O)N[C@@H](CC(C)C)C(=O)N[C@H](C(=O)N[C@@H](CCC(N)=O)C(=O)N[C@@H](Cc1c[nH]cn1)C(=O)N[C@@H](CCCCN)C(=O)N[C@H](C(=O)N[C@H](C(=O)N[C@@H](CC(=O)O)C(=O)O)[C@@H](C)O)[C@@H](C)CC)[C@@H](C)CC
